# Data: patent US8835379B2, “Derivatives of CGRP” (Novo Nordisk A/S, priority 2009, dated 2014)
# *1 amine or outer side, *2 acyl side, *3 side chain or, on linkers, in order; H or OH if unused. Bridges are numbered along the chain shown (N, C = ends). Where no end group is shown, it is not given here. Side-chain parts run from the residue outwards. The star is where a group is joined. C18 diacid = O=C(O)CCCCCCCCCCCCCCCCC(=O)*; γGlu = O=C(O)[C@H](CCC(=O)[*:2])N[*:1]; AEEA = NCCOCCOCC(=O)O
# B1: human alpha-CGRP acylated at position 25 (peptide)
# peptide: ACDTATCVTHRLAGLLSRSGGVVKKNFVPTNVGSKAF
# modifications: position 25 (printed X) = N-ε-{2-(2-{2-[2-(2-{2-[4-carboxy-4-(17-carboxyheptadecanoylamino)butyrylamino]ethoxy}ethoxy)-acetylamino]ethoxy}ethoxy)acetyl})-L-lysine; Cys2 and Cys7 are cyclised with a disulfide bond
# Biological target: CGRP receptor: calcitonin receptor-like receptor (CRLR) with receptor activity modifying protein-1 (RAMP1), stably transfected in Chinese hamster ovary (CHO) cells together with CRE luciferase
# Assay: cell-based or functional assay
# Conditions: not given
Molecule,"EC50, pM (in vitro potency; CGRP-induced cAMP accumulation in CGRP receptor expressing cells, CRE luciferase)",pEC50-ratio relative to human alpha-CGRP
rat CGRP-beta (from UniProt P10093 89-125) (peptide),9 pM,–
"SCNTATCVTHRLAGLLSRSGGVVKDNFVPTNVGSEAF (peptide, UniProt P01256 83-119, looked up, disulfide 2-7; ends not checked) [rat CGRP-alpha]",5 pM,–
B1,–,0.23
ACDTATCVTHRLAGLLSRSGGVVKNK([AEEA-AEEA-γGlu-C18 diacid])FVPTNVGSKAF (disulfide 2-7; ends not checked) [human alpha-CGRP acylated at position 26],–,0.38
ACDTATCVTHK([AEEA-AEEA-γGlu-C18 diacid])LAGLLSRSGGVVKNNFVPTNVGSKAF (disulfide 2-7; ends not checked) [human alpha-CGRP acylated at position 11],–,0.28
ACDK([AEEA-AEEA-γGlu-C18 diacid])ATCVTHRLAGLLSRSGGVVKNNFVPTNVGSKAF (disulfide 2-7; ends not checked) [human alpha-CGRP acylated at position 4],–,0.15
ACDTATCVTHRLAGLLSRSGGVVKNNFK([AEEA-AEEA-γGlu-C18 diacid])PTNVGSKAF (disulfide 2-7; ends not checked) [human alpha-CGRP acylated at position 28],–,0.62
ACDTATCVTHRLAGLLSRSGGVVKNNFVK([AEEA-AEEA-γGlu-C18 diacid])TNVGSKAF (disulfide 2-7; ends not checked) [human alpha-CGRP acylated at position 29],–,0.41
ACDTATCVTHRLAGLLSRSGGVVKNNFVPTK([AEEA-AEEA-γGlu-C18 diacid])VGSKAF (disulfide 2-7; ends not checked) [human alpha-CGRP acylated at position 31],–,0.44
ACK([AEEA-AEEA-γGlu-C18 diacid])TATCVTHRLAGLLSRSGGVVKNNFVPTNVGSKAF (disulfide 2-7; ends not checked) [human alpha-CGRP acylated at position 3],–,0.14

# Biological target: CGRP receptor (calcitonin receptor-like receptor (CRLR), receptor activity modifying protein-1 (RAMP1)) (Homo sapiens, UniProt O60894+Q16602)
# Sequence (Q16602 23-461, species assumed): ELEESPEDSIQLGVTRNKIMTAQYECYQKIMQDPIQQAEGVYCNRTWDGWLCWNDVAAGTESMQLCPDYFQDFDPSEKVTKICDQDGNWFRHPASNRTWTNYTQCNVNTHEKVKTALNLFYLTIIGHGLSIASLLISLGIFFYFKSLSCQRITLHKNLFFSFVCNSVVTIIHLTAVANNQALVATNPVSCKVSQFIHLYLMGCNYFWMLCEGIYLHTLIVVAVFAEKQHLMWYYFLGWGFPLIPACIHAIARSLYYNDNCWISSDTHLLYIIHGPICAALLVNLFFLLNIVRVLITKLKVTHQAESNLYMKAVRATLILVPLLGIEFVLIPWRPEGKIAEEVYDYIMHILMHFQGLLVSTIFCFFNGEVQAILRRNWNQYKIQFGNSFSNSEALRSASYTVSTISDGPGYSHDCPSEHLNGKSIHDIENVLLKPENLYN
# Sequence (O60894 27-148, species assumed): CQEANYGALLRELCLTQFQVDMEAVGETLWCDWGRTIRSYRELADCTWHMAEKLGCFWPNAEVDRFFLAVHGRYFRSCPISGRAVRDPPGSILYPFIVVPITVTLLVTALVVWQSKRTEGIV
# Assay: CGRP-induced cAMP accumulation in CGRP receptor expressing cells (CHO, CRE luciferase reporter)
# Assay type: cell-based
# Conditions: crude SPOT-synthesised peptides, photo-cleaved, in DMSO; CGRP-1-luc cell line
# Protocol: Chinese hamster ovary (CHO) cells were stably transfected with calcitonin receptor-like receptor (CRLR), receptor activity modifying protein-1 (RAMP1) and CRE luciferase (cAMP responsive element for control of luciferase gene expression). Luciferase is a reporter-gene reporting accumulation of intracellular cAMP).
# Cells were cultured in F12 media supplemented with GlutaMAX™ (Gibco cat no 31765-027), FBS (10%, Gibco 16140-071), Penicillin-streptomycin (1%, Lonza DE-17-602E), G418 (400 μg/ml, Gibco 10131-027), Blasticidine (10 μg/ml, Corning cat no 15205), Hygromycin (400 μg/ml, Calbiochem cat no 400052).
# Cells were seeded in a 96 well plate (Packard #6005180), 20000 cells/well in 100 μl media on the day before experimentation. On the day of experimentation media was replaced by assay medium (Dulbecco's media w/o phenol red (Gibco cat no 11880-028) supplemented with 10% FBS (10%, Gibco 16140-071), Hepes (10 mM, Gibco cat no 15630), GlutaMAX™ (2 mM, Gibco cat no 35050), 50 μl/well.
# Peptides were diluted in assay media before added to cells for stimulation, 50 μl/well.
# Cells were incubated 5% CO2, 37° C. for 4 hours.
# Assay medium and peptides were replaced by phosphate buffered saline (PBS, Gibco cat no 14040-091), 100 μl/well and LucLite™ (PerkinElmer, cat no 6076759), 100 μl/well were added. The plate was sealed before incubation for 30 min at room temperature (21° C.). Luciferase activity (luminescens, 7 s/well) was measured (TopCount®, NXT, Packard).
# Dose-response curves were fitted by use of GraphPad Prism software and pEC50 values were calculated. Data were given as mean±SEM, n=2 and each analogue was tested twice.
row,Molecule,"pEC50-ratio relative to human alpha-CGRP, measured by the CGRP-induced cAMP accumulation in CGRP receptor expressing cells"
1,"ACDTATCVTHRLAGLLSRSGGVVKXNFVPTNVGSKAF (ACDTATCVTHRLAGLLSRSGGVVKKNFVPTNVGSKAF; cyclised or stapled) [Acylation Position 25, human alpha CGRP, position 25 replaced by X, the acylated L-lysine; Cys2-Cys7 disulfide]",0.23
2,"ACDTATCVTHXLAGLLSRSGGVVKNNFVPTNVGSKAF (ACDTATCVTHK([AEEA-AEEA-γGlu-C18 diacid])LAGLLSRSGGVVKNNFVPTNVGSKAF; disulfide 2-7; ends not checked) [Acylation Position 11, human alpha CGRP, position 11 replaced by X, the acylated L-lysine; Cys2-Cys7 disulfide]",0.28
3,"ACDTATCVTHRLAGLLSRSGGVVKNNFVPTXVGSKAF (ACDTATCVTHRLAGLLSRSGGVVKNNFVPTK([AEEA-AEEA-γGlu-C18 diacid])VGSKAF; disulfide 2-7; ends not checked) [Acylation Position 31, human alpha CGRP, position 31 replaced by X, the acylated L-lysine; Cys2-Cys7 disulfide]",0.44
4,"ACDXATCVTHRLAGLLSRSGGVVKNNFVPTNVGSKAF (ACDK([AEEA-AEEA-γGlu-C18 diacid])ATCVTHRLAGLLSRSGGVVKNNFVPTNVGSKAF; disulfide 2-7; ends not checked) [Acylation Position 4, human alpha CGRP, position 4 replaced by X, the acylated L-lysine; Cys2-Cys7 disulfide]",0.15
5,"ACDTATCVTHRLAGLLSRSGGVVKNNFXPTNVGSKAF (ACDTATCVTHRLAGLLSRSGGVVKNNFK([AEEA-AEEA-γGlu-C18 diacid])PTNVGSKAF; disulfide 2-7; ends not checked) [Acylation Position 28, human alpha CGRP, position 28 replaced by X, the C18 diacid-gamma-Glu-OEG-OEG acylated L-lysine; Cys2-Cys7 disulfide]",0.62
6,"ACDTATCVTHRLAGLLSRSGGVVKNXFVPTNVGSKAF (ACDTATCVTHRLAGLLSRSGGVVKNK([AEEA-AEEA-γGlu-C18 diacid])FVPTNVGSKAF; disulfide 2-7; ends not checked) [Acylation Position 26, human alpha CGRP, position 26 replaced by X, the acylated L-lysine; Cys2-Cys7 disulfide]",0.38
7,"ACDTATCVTHRLAGLLSRSGGVVKNNFVXTNVGSKAF (ACDTATCVTHRLAGLLSRSGGVVKNNFVK([AEEA-AEEA-γGlu-C18 diacid])TNVGSKAF; disulfide 2-7; ends not checked) [Acylation Position 29, human alpha CGRP, position 29 replaced by X, the acylated L-lysine; Cys2-Cys7 disulfide]",0.41
